Measured values as given in patent publication US20130224191A1, “NOTUM PROTEIN MODULATORS AND METHODS OF USE” (priority 2010, published 2013).

T1: Notum (Homo sapiens, UniProt Q6P988)
T1 sequence (Q6P988 20-496): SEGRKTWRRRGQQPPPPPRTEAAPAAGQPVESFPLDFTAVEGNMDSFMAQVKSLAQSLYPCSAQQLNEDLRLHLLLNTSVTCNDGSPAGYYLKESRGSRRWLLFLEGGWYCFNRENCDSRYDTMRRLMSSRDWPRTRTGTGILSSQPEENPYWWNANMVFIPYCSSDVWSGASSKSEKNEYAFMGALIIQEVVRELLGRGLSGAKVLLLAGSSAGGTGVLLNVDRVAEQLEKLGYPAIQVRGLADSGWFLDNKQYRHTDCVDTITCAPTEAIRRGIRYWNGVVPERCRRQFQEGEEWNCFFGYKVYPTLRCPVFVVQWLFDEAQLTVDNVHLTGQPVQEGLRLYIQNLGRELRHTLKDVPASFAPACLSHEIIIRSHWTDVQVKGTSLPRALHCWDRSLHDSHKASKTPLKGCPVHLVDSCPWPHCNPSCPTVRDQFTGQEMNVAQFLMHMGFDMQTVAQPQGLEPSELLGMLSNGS

T2: human Notum (recombinant or endogenous; construct not specified at the place of use) (human, UniProt Q6P988 20-496)
T2 construct: also called hNotum; human Notum protein
T2 sequence: T1 sequence (Q6P988 20-496)

B1: hSC2.D2.2 (antibody, human IgG1, V domains shown)
VH: EVQLVESGGGLVQPGGSLRLSCAASGFTFSSYGMNWVRQAPGKGLEWVSYISSSTVTTYYADSVKGRFTISRDNAKNSLYLQMNSLRDEDTAVYYCSRQNWDGGYFDVWGAGTTVTVSS
VL: DIVMTQSPLSLPVTPGEPASISCRASKSVSSSGYSYMHWYLQKPGQSPQLLIYLASNLESGVPDRFSGSGSGTDFTLKISRVEAEDVGVYYCQHSRALPLTFGAGTKLELKR
notes: Humanized variable regions cloned into vectors with human IgG1 and kappa constant regions; also called humanized SC2.D2.2
B2: hNotum-Fc: recombinant human Notum fused to human IgG2 Fc, SEQ ID NO: 333 (protein)
chain: MYRMQLLSCIALSLALVTNSSEGRKTWRRRGQQPPPPPRTEAAPAAGQPVESFPLDFTAVEGNMDSFMAQVKSLAQSLYPCSAQQLNEDLRLHLLLNTSVTCNDGSPAGYYLKESRGSRRWLLFLEGGWYCFNRENCDSRYDTMRRLMSSRDWPRTRTGTGILSSQPEENPYWWNANMVFIPYCSSDVWSGASSKSEKNEYAFMGALIIQEVVRELLGRGLSGAKVLLLAGSSAGGTGVLLNVDRVAEQLEKLGYPAIQVRGLADSGWFLDNKQYRHTDCVDTITCAPTEAIRRGIRYWNGVVPERCRRQFQEGEEWNCFFGYKVYPTLRCPVFVVQWLFDEAQLTVDNVHLTGQPVQEGLRLYIQNLGRELRHTLKDVPASFAPACLSHEIIIRSHWTDVQVKGTSLPRALHCWDRSLHDSHKASKTPLKGCPVHLVDSCPWPHCNPSCPTVRDQFTGQEMNVAQFLMHMGFDMQTVAQPQGLEPSELLGMLSNGSISAMVRSVECPPCPAPPVAGPSVFLFPPKPKDTLMISRTPEVTCVVVDVSHEDPEVQFNWYVDGVEVHNAKTKPREEQFNSTFRVVSVLTVVHQDWLNGKEYKCKVSNKGLPAPIEKTISKTKGQPREPQVYTLPPSREEMTKNQVSLTCLVKGFYPSDIAVEWESNGQPENNYKTTPPMLDSDGSFFLYSKLTVDKSRWQQGNVFSCSVMHEALHNHYTQKSLSLSPGK

Key:
[1] = target: T1, Notum; assay: Bio-layer interferometry on ForteBIO RED; format: binding; conditions: 250, 125 and 62.5 nM antigen
Procedure: (§1) Three methods were used to characterize the affinity of humanized SC2.D2.2 relative to its analogous mAb with the murine variable region. First, binding signal was measured for a fixed amount of antibody probed against serial dilutions of antigen in an ELISA format. […] Second, the affinity of murine SC2.D2.2 was measured by Biacore using surface plasmon resonance (SPR) to provide the results set forth in FIG. 32A. Based on a concentration series of 12.5, 6.25, 3.125, 1.5625, 0.78125 nM and using a 1:1 Langmuir binding model, the Kd of the antibody binding to antigen was estimated to be less than 0.1 nM. Long off-rates for this interaction made accurate determination of affinity through kinetics difficult. The murine antibody was then directly compared to the humanized derivative using bio-layer interferometry analysis on a ForteBIO RED (ForteBIO, Inc.) with a concentration series of 250, 125, and 62.5 nM antigen.

[2] = target: T1, Notum; assay: ELISA, fixed antibody against serial dilutions of antigen; format: binding
Procedure: as §1

[3] = target: T2, human Notum (recombinant or endogenous; …); assay: bio-layer interferometry (ForteBIO RED), fixed antibody, antigen at 250, 125 and 62.5 nM by the text
Procedure: Three methods were used to characterize the affinity of humanized SC2.D2.2 relative to its analogous mAb with the murine variable region. First, binding signal was measured for a fixed amount of antibody probed against serial dilutions of antigen in an ELISA format. Measured signal levels were substantially similar (data not shown). Second, the affinity of murine SC2.D2.2 was measured by Biacore using surface plasmon resonance (SPR) to provide the results set forth in FIG. 32A. […] Long off-rates for this interaction made accurate determination of affinity through kinetics difficult. The murine antibody was then directly compared to the humanized derivative using bio-layer interferometry analysis on a ForteBIO RED (ForteBIO, Inc.) with a concentration series of 250, 125, and 62.5 nM antigen.

[4] = system: Wnt3A-mediated induction of luciferase in the 293.TCF cells; assay: Wnt3A canonical signaling assay, bioactivity of Notum constructs; format: cell-based, human
Excerpt: To generate a stable population of cells that contain a reporter for the activation of canonical Wnt signaling, HEK 293T cells were transduced with a lentiviral vector, pGreenFirel-TCF (System Biosciences) which encodes a bifunctional GFP and luciferase reporter cassette under the control of a minimal CMV reporter linked to four tandem repeats of the transcriptional response elements for TCF. Transduced cells populations, termed 293.TCF cells, were subsequently used in a Wnt3A canonical signaling assay as follows: 2.5×10^4 293.TCF cells were plated per well of a 96-well tissue culture plate in 50 μL of serum-free DME medium. After 24 hours of serum starvation, 25 μL of various dilutions of conditioned medium (CM) from L/Wnt3A cells (ATCC CRL-2647; Willert, 2003) or undiluted CM from parental L-cells (ATCC CRL-2648) along with 25 μL of DMEM+0.2% FBS were added to each well. Eighteen hours after addition of CM, 100 μL of One-Glo solution (ProMega Corp.) was added to each well. The contents of each well were then mixed thoroughly to lyse the cells, 100 μL of lysate transferred to black 96-well plates, and the luminescence in each well read after 5 mins using a Wallac Victor3 Multilabel Counter (Perkin-Elmer Corp). […] More particularly, as the Wnt3A+ CM media is diluted from 25% down to approximately 3%, activation of the Wnt pathway is reduced with a corresponding decrease in luminescence.
Once the luciferase reporter system was established, assays for determining the bioactivity of various Notum modulators were performed as follows. 2.5×10^4 293.TCF cells were plated per well of a 96-well tissue culture plate in 50 μL of serum-free medium. After 23 hours of serum starvation, 25 μL of DMEM+0.2% FBS containing various Notum modulators at various concentrations (e.g., hNotum-His, hNotum-hFc, hNotum-S232A-His, murine Notum-His, murine Notum-hFc, macaque Notum-hFc, control protein-His or control protein-hFc obtained as per Examples 7, 8 and 13 above), were added to the cells. After 1 hour, 25 μL of Wnt3A or control L-cell CM were added to each well. Eighteen hours after addition of CM, 100 μL of One-Glo solution (ProMega Corp.) was added to each well, the contents of each well mixed thoroughly to lyse the cells, 100 μL of lysate transferred to black 96-well plates, and the luminescence read after 5 minutes.

[5] = system: mouse lineage-depleted NTX tumor cells from SCRx-CR4; assay: Cell survival/proliferation, CellTiterGlo, SCRx-CR4; format: cell-based, human; conditions: 1 or 10 μg/mL, 14 days
Procedure: To determine whether Notum protein impacts cell proliferation and/or apoptosis of human colorectal cancer cells, HCT-116 cells or mouse lineage-depleted NTX tumor cells (i.e. human tumor cells) were plated as described below and exposed to recombinant hNotum (e.g. hNotum-His or hNotum-hFc) and anti-Notum antibodies. Cell numbers were then assessed 12-14 days later.
Cells were then incubated for 14 days at 37° C., 5% CO2 and 5% O2 and the number of viable cells was assessed using Promega's CellTiterGlo assay kit per the manufacturer's instructions. For the HCT-116 cell line (a commercially available colorectal tumor cell line), cells were plated at 2,000 cells per well in DMEM+1% FBS, followed 24-hours later by the addition of serum free DMEM containing recombinant human Notum in the presence or absence of monoclonal antibodies SC2.D2.2 or SC2.10B3. HCT-116 cells were then incubated for 12 days at 37° C., 5% CO2 and cell viability was assessed with Promega's CellTiterGlo assay kit. Higher readings are indicative of higher viable cell counts.

[6] = target: T3, rhWnt3A (Homo sapiens, UniProt P56704); assay: Triton X114 partition assay, delipidation of rhWnt3A by Notum; format: biochemical; conditions: overnight incubation
T3 construct: purchased R & D Systems
Excerpt: If Notum directly acts upon Wnt3A to delipidate the protein, this cleavage should result in a change in the hydrophobicity of the protein, which can be measured by a change in its partitioning behavior between aqueous and detergent phases in a Triton X114 partition assay (Bordier, 1981, PMID: 6257680): lipidated Wnt3A will be found in the […], whereas delipidated Wnt3A should show up in the […] (Willert et al., 2003, PMID: 12717451). […] An equal volume of 4.5% Triton X114 was added to the mixture, the mixture incubated on ice for 5 minutes, then at 37° C. for five minutes, before separating the phases using centrifugation at 2000×g for five minutes at room temperature. Following separation each sample was adjusted to normalize the ionic strength and Triton X114 content before analyzing the aliquots by PAGE electrophoresis. After running the gel the protein bands were transferred to a membrane for immunoblotting using an anti-rhWnt3A antibody (Cell Signaling Technology). Bands were visualized using SuperSignal West Pico Chemiluminescent substrate (Thermo Fisher Scientific).

T3 sequence (P56704 19-352): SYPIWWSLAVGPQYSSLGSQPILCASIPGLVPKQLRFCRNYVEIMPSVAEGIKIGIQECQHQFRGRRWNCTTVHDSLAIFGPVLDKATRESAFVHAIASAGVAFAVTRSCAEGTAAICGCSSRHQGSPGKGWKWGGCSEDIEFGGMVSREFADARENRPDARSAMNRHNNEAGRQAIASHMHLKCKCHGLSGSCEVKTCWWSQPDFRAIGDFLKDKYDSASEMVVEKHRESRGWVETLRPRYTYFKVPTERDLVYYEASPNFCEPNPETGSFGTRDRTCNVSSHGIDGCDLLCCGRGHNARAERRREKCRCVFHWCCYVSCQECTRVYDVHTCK

Molecule | affinity, binding curves [1] | binding signal relative to antibody with murine variable region [2] | binding result [3] | antagonism of Wnt3A-mediated induction of luciferase [4] | increase in cell counts [5] | redistribution of rhWnt3A between Triton X114 and aqueous phase [6]
B1 | excellent affinity | substantially similar | binds |  |  | 
B2 |  |  |  | functionally antagonize | 20-45% | leads to a redistribution of the rhWnt3A into the aqueous phase
